Assay results from the supplement of paper PMC10567573.

B1: MGC27345 (parent)
chain: KYMPHLCQDSSGEVSCQCQLHPPR

Variants of: B1
Assay: protein stability index of a GFP-peptide fusion (GPS, HEK-293T) (PSI 1-6); higher = more stable
Settings: c terminus: a fixed tail appended
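Further: lentivirally expressed fusions sorted by FACS into six bins by GFP to DsRed ratio, PSI derived from sequencing read proportions per bin multiplied by bin number.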

Protein stability index, by site and new letter:
V14: W 2.42; K 2.64; I 2.48; F 1.94; M 2.23; P 2.45; A 3.06; H 2.48; S 2.88; T 2.87; G 3.14; N 2.46; C 2.94; R 2.24; L 1.97
E13: V 1.78; T 2.22; S 2.26; A 2.3; M 1.89; L 2.07; Q 1.74; H 2.05; W 1.03; I 1.99; N 1.75; C 2.14; Y 1.54; D 2.57; K 2.21
S10: I 2.63; D 2.94; Q 2.26; W 1.6; E 2.57; P 2.05; F 2.65; L 1.57; C 2.73; K 2.02; M 2.39; N 2.08; T 1.97
C18: Q 3.6; E 3.62; S 3.79; D 3.65; H 2.94; R 3; P 3.55; A 3.46; I 3.34; M 2.54; V 3.48; K 3.44; W 2.44
H21: Q 4.58; L 1.51; T 3.51; C 2.65; S 2.86; D 2.6; R 1.69; N 2.31; E 3.34; Y 2.06
Q8: G 2.42; H 2.03; C 2.53; D 2.6; R 2.83; A 2.65; N 2.54; V 2.73; I 2.38; W 2.65; E 1.97; F 2.38; T 3.04
L20: M 2.73; D 2.73; Q 2.34; E 3.1; G 1.85; K 2.04; P 3.73; F 2.13; W 1.82; Y 2.05; A 2.37; H 3.1; V 2.17
C16: Y 3.13; F 2.16; T 2.96; S 2.03; W 2.38; K 3.58; G 4.1; Q 3.99; P 3.31; A 3.38; V 2.85; H 3.05; D 3.88; E 4.02; R 3.1
P22: M 2.51; W 2.05; Q 2.64; C 2.47; Y 2.45; F 2.41; I 2.03; G 3.29; N 3.16; H 3.14; A 2.66; E 3.09; T 2.49
P23: Y 2.07; N 2.85; G 3.38; E 3.48; H 2.66; I 2.24; S 2.47; C 3.96; L 2.38; M 2.2; A 2.34; W 2.34; T 2.02; D 3.71; F 2.32; V 2.87; K 2.35
L6: F 1.59; C 2.39; R 2.05; Q 2.47; V 2.65; Y 1.96; K 2.14; M 1.79; D 2.64; S 2.98; W 1.53; G 2.66; H 2.1; P 1.57; I 2.23; N 1.79
S11: P 1.72; A 2.53; D 2.13; I 1.71; E 2.42; Q 1.63; N 2.55; C 2.5; K 2.28; V 1.45; T 2.1; R 1.66; M 2.12; W 1.28; L 2.04
H5: D 1.66; W 3.69; S 1.89; F 1.34; I 1.49; N 1.64; T 2.21; M 2.15; R 2.57; G 1.45; C 2.92; E 2.3; V 2.22
D9: W 1.52; R 1.89; H 2.38; C 2.97; P 1.42; T 2.14; E 3.09; L 2.18; I 1.51; G 2.56; N 1.98; K 2.43; F 2.47; M 2.15; S 1.82
Q17: C 2.32; P 2.21; Y 1.76; T 1.81; L 2.17; S 1.33; R 2.35; H 1.74; N 1.47; V 2.44; A 1.66; W 2.6
K1: Y 1.92; P 2.16; M 3.73; E 2.06; V 2.43; N 1.73; R 2.24; F 1.6; S 2.65; H 2.13; G 2.25; D 2.56; A 1.82; L 2.48; Q 2
Y2: P 1.79; D 2.4; T 2.3; R 2.16; A 1.97; H 2.51; E 1.66; M 2.52; C 2.44; S 2.33; W 2.64; V 2.23
R24: C 3.86; V 3.23; A 3.79; T 3.99; H 4.04; Q 4.05; N 4.28; D 4.59; I 3.75; E 4.59; S 4.29
P4: D 2.18; Q 1.99; T 1.98; F 1.75; A 2.26; L 1.7; V 2.81; S 1.71; I 1.49; G 1.62; E 1.79; H 1.69; R 1.9; M 2.54
Q19: H 1.52; V 1.96; L 2.12; Y 2.71; S 2.5; P 3.84; I 2.15; M 2.13; A 2.45; G 2.81; K 2.07; T 2.36; N 2.63; D 2.25
S15: K 2.8; G 2.14; V 2.48; L 1.72; P 2.67; E 3.32; T 1.41; H 1.64; W 1.02; C 2.28; N 2.62; I 1.63; D 3.99; F 1.67
G12: P 1.96; I 1.47; R 1.69; E 2.1; N 1.67; K 1.59; M 1.88; A 2; Q 2.8; H 2.69; D 2.52; L 2.08; Y 1.53; F 1.34; C 2.38; T 1.87
C7: A 1.47; E 1.77; Q 2.1; G 3.13; M 2.11; I 1.79; L 1.85; R 3.06; H 1.85; K 1.9; T 1.53; N 1.27; P 1.77
M3: V 2.32; T 1.96; N 2.55; C 2.94; F 1.99; R 2.46; S 2.27; Q 1.05; Y 2.22; W 1.99; E 2.25; I 2.01; P 2.84; G 2.1; L 2.67; K 1.96; H 2.28
